Positions of bridges follow the written chain, without caps; N, C: chain ends. No end group written: not given here.
Legend:
[1] = target: bovine serum albumin (bovine) (UniProt P02769); experiment: phage ELISA, 10^8 phagemid per well, BSA-only wells
[2] = target: unrelated control antibody; experiment: phage ELISA, 10^10 phagemid per well, wells coated with control mAb
[3] = target: bovine serum albumin (bovine) (UniProt P02769); experiment: phage ELISA, 10^10 phagemid per well, BSA-only wells
[4] = target: unrelated control antibody; experiment: phage ELISA, 10^9 phagemid per well, wells coated with control mAb
[5] = target: unrelated control antibody; experiment: phage ELISA, 10^8 phagemid per well, wells coated with control mAb
[6] = target: bovine serum albumin (bovine) (UniProt P02769); experiment: phage ELISA, 10^9 phagemid per well, BSA-only wells

bovine serum albumin (bovine), sequence (P02769 25-607 limits assumed): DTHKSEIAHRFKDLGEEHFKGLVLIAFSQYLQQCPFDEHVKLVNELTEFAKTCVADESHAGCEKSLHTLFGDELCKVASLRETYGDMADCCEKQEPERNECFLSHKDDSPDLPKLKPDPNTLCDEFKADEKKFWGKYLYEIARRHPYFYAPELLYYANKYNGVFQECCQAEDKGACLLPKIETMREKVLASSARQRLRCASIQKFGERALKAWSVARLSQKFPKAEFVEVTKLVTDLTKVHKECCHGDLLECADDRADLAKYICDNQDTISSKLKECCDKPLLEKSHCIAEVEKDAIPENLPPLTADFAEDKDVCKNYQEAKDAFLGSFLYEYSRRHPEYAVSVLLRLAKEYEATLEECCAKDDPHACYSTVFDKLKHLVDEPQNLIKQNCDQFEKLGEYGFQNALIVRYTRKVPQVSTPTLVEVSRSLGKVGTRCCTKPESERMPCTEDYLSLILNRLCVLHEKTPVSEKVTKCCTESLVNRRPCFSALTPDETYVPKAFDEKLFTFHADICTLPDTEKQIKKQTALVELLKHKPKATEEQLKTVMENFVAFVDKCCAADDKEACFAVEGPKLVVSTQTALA

Binder	ELISA (absorbance units) (absorbance units) [1]	ELISA (absorbance units) (absorbance units) [2]	ELISA (absorbance units) (absorbance units) [3]	ELISA (absorbance units) (absorbance units) [4]	ELISA (absorbance units) (absorbance units) [5]	ELISA (absorbance units) (absorbance units) [6]
CSLFYLWDQDRCS (disulfide 1-12 (inferred)) [phagemid CS1-2p]	0.264	0.228	0.327	0.199	0.188	0.277
CSGLYPWDYFMCS (disulfide 1-12 (inferred)) [phagemid CS1-29p]	0.127	0.148	0.141	0.136	0.125	0.147
CSFRYQWDMFRCS (disulfide 1-12 (inferred)) [phagemid CS1-11p]	0.268	0.242	0.304	0.258	0.252	0.278
CSGLYPWDMFRCS (disulfide 1-12 (inferred)) [phagemid CS1-9p]	0.216	0.213	0.221	0.204	0.209	0.22
CSFFYSLCYCWCS (disulfide (positions not given here); also: disulfide cyclised, pairing of the four Cys not given here) [phagemid CS1-31p]	0.109	0.125	0.112	0.118	0.116	0.114
CSFRYLWDQDRCS (disulfide 1-12 (inferred)) [phagemid CS1-6p]	0.254	0.203	0.275	0.172	0.173	0.27

From patent publication US20110020379A1
